Measurements: the supplement of paper PMC9112550, “Optimization of the antimicrobial peptide Bac7 by deep mutational scanning” (BMC Biology, 2022)

Tested on: Escherichia coli TOP10
Experiment: shrunken log2 fold change of peptide-encoding DNA abundance (4.5 h post-induction vs induction); higher = less antimicrobial activity (less host growth inhibition)
Settings: time post-induction: 4.5 h; library: site-saturation at positions 5, 18, 19, 20
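Note: peptides expressed intracellularly from a pBAD plasmid library in pooled LB shake-flask culture, induced with 0.3% L-arabinose, DNA abundance read by NGS, three biological replicates, DESeq2 with apeglm shrinkage.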

| Sequence | shrunken log2 fold change |
| --- | --- |
| RRIRERPPRLPRPRPRPHDLPRP | -0.343 |
| RRIRYRPPRLPRPRPRPMMQPRP | -1.94 |
| RRIRSRPPRLPRPRPRPQQIPRP | 0.153 |
| RRIRIRPPRLPRPRPRPMDIPRP | -0.911 |
| RRIRHRPPRLPRPRPRPTMHPRP | -0.0232 |
| RRIRDRPPRLPRPRPRPWEMPRP | 0.335 |
| RRIRKRPPRLPRPRPRPWLHPRP | 0.24 |
| RRIRCRPPRLPRPRPRPMHEPRP | -0.00208 |
| RRIRVRPPRLPRPRPRPDPGPRP | -0.321 |
| RRIRARPPRLPRPRPRPYENPRP | -0.0975 |
| RRIRIRPPRLPRPRPRPIAPPRP | -0.0686 |
| RRIRYRPPRLPRPRPRPGYTPRP | 0.0577 |
| RRIRTRPPRLPRPRPRPYDLPRP | -0.14 |
| RRIRKRPPRLPRPRPRPFIVPRP | -0.345 |
| RRIRCRPPRLPRPRPRPAEAPRP | 0.12 |
| RRIRDRPPRLPRPRPRPYYSPRP | 0.0804 |
| RRIRWRPPRLPRPRPRPPTRPRP | 0.578 |
| RRIRKRPPRLPRPRPRPFAGPRP | 0.191 |
| RRIRFRPPRLPRPRPRPLESPRP | -0.00313 |
| RRIRVRPPRLPRPRPRPDEEPRP | 0.393 |
| RRIRWRPPRLPRPRPRPQWDPRP | -0.0065 |
| RRIRERPPRLPRPRPRPYAMPRP | -0.416 |
| RRIRVRPPRLPRPRPRPRNHPRP | 0.0133 |
| RRIRLRPPRLPRPRPRPTKKPRP | 0.12 |
| RRIRSRPPRLPRPRPRPCWNPRP | -0.296 |

| Sequence | shrunken log2 fold change |
| --- | --- |
| RRIRARPPRLPRPRPRPLQSPRP | 0.625 |
| RRIRSRPPRLPRPRPRPGKQPRP | 0.00846 |
| RRIRIRPPRLPRPRPRPNHYPRP | -0.492 |
| RRIRRRPPRLPRPRPRPHYTPRP | -0.313 |
| RRIRARPPRLPRPRPRPVFKPRP | 0.115 |
| RRIRLRPPRLPRPRPRPEQIPRP | -0.0478 |
| RRIRRRPPRLPRPRPRPWVGPRP | -0.00367 |
| RRIRSRPPRLPRPRPRPTVSPRP | -0.221 |
| RRIRSRPPRLPRPRPRPDRHPRP | -0.0205 |
| RRIRNRPPRLPRPRPRPYPRPRP | 0.0154 |
| RRIRNRPPRLPRPRPRPKDAPRP | 0.0655 |
| RRIRQRPPRLPRPRPRPQVPPRP | -0.148 |
| RRIRKRPPRLPRPRPRPNQHPRP | 0.0449 |
| RRIRCRPPRLPRPRPRPYPRPRP | -0.00439 |
| RRIRMRPPRLPRPRPRPCHNPRP | -0.355 |
| RRIRCRPPRLPRPRPRPQLSPRP | 0.122 |
| RRIRQRPPRLPRPRPRPADLPRP | -0.0217 |
| RRIRGRPPRLPRPRPRPHTAPRP | 0.149 |
| RRIRGRPPRLPRPRPRPANDPRP | 0.902 |
| RRIRQRPPRLPRPRPRPMVFPRP | 0.111 |
| RRIRYRPPRLPRPRPRPQSWPRP | 0.0202 |
| RRIRFRPPRLPRPRPRPAQEPRP | 0.351 |
| RRIRARPPRLPRPRPRPGKMPRP | -0.0572 |
| RRIRARPPRLPRPRPRPARFPRP | 1.03 |
| RRIRARPPRLPRPRPRPPKVPRP | 0.123 |

| Sequence | shrunken log2 fold change |
| --- | --- |
| RRIRYRPPRLPRPRPRPADVPRP | -0.127 |
| RRIRARPPRLPRPRPRPWNVPRP | -0.181 |
| RRIRTRPPRLPRPRPRPQCAPRP | 0.151 |
| RRIRKRPPRLPRPRPRPPWSPRP | 0.154 |
| RRIRIRPPRLPRPRPRPVCCPRP | -0.0749 |
| RRIRTRPPRLPRPRPRPPQRPRP | 0.577 |
| RRIRLRPPRLPRPRPRPCVKPRP | 0.00159 |
| RRIRFRPPRLPRPRPRPHNIPRP | -0.501 |
| RRIRGRPPRLPRPRPRPAEHPRP | 0.352 |
| RRIRERPPRLPRPRPRPKDNPRP | -0.342 |
| RRIRRRPPRLPRPRPRPWRVPRP | 0.277 |
| RRIRNRPPRLPRPRPRPSNSPRP | -0.235 |
| RRIRNRPPRLPRPRPRPTTKPRP | -0.0801 |
| RRIRFRPPRLPRPRPRPIVTPRP | -0.075 |
| RRIRMRPPRLPRPRPRPPVHPRP | 0.595 |
| RRIRMRPPRLPRPRPRPVLIPRP | -0.0938 |
| RRIRIRPPRLPRPRPRPDVCPRP | -0.225 |
| RRIRIRPPRLPRPRPRPSNLPRP | -0.931 |
| RRIRCRPPRLPRPRPRPNECPRP | -0.37 |
| RRIRRRPPRLPRPRPRPKYFPRP | 0.162 |
| RRIRERPPRLPRPRPRPYRHPRP | -0.0262 |
| RRIRVRPPRLPRPRPRPAYCPRP | -0.112 |
| RRIRFRPPRLPRPRPRPDQHPRP | -0.34 |
| RRIRTRPPRLPRPRPRPYRCPRP | -0.123 |
| RRIRYRPPRLPRPRPRPSWQPRP | -0.526 |

| Sequence | shrunken log2 fold change |
| --- | --- |
| RRIRRRPPRLPRPRPRPYYDPRP | -1.02 |
| RRIRDRPPRLPRPRPRPPWSPRP | 0.31 |
| RRIRCRPPRLPRPRPRPYDDPRP | -0.396 |
| RRIRDRPPRLPRPRPRPPNLPRP | -0.172 |
| RRIRGRPPRLPRPRPRPSDQPRP | 0.796 |
| RRIRIRPPRLPRPRPRPDETPRP | -0.183 |
| RRIRYRPPRLPRPRPRPHLWPRP | -0.255 |
| RRIRNRPPRLPRPRPRPFPKPRP | 0.0299 |
| RRIRFRPPRLPRPRPRPWYGPRP | -0.138 |
| RRIRLRPPRLPRPRPRPSWYPRP | -0.294 |
| RRIRRRPPRLPRPRPRPDICPRP | 0.0657 |
| RRIRPRPPRLPRPRPRPGRQPRP | 0.742 |
| RRIRVRPPRLPRPRPRPVIAPRP | -0.0291 |
| RRIRMRPPRLPRPRPRPQYQPRP | -0.00342 |
| RRIRGRPPRLPRPRPRPCILPRP | 0.0804 |
| RRIRGRPPRLPRPRPRPYQCPRP | -0.0235 |
| RRIRWRPPRLPRPRPRPMTHPRP | -0.0884 |
| RRIRHRPPRLPRPRPRPMFCPRP | 0.0621 |
| RRIRKRPPRLPRPRPRPQHSPRP | -0.288 |
| RRIRKRPPRLPRPRPRPGFSPRP | 0.297 |
| RRIRLRPPRLPRPRPRPKPDPRP | 0.315 |
| RRIRQRPPRLPRPRPRPVYMPRP | -0.269 |
| RRIRWRPPRLPRPRPRPVDDPRP | -0.0142 |
| RRIRMRPPRLPRPRPRPLMQPRP | 0.29 |
| RRIRPRPPRLPRPRPRPCYDPRP | -0.165 |

| Sequence | shrunken log2 fold change |
| --- | --- |
| RRIRDRPPRLPRPRPRPTDVPRP | -0.0358 |
| RRIRIRPPRLPRPRPRPQMFPRP | -0.65 |
| RRIRARPPRLPRPRPRPYMPPRP | -0.829 |
| RRIRFRPPRLPRPRPRPIEFPRP | 0.0129 |
| RRIRMRPPRLPRPRPRPKYYPRP | -0.0662 |
| RRIRQRPPRLPRPRPRPAFVPRP | -0.0399 |
| RRIRWRPPRLPRPRPRPQCRPRP | -0.00115 |
| RRIRWRPPRLPRPRPRPFNAPRP | -0.342 |
| RRIRKRPPRLPRPRPRPPLIPRP | 0.285 |
| RRIRFRPPRLPRPRPRPVNKPRP | -0.492 |
| RRIRRRPPRLPRPRPRPFMEPRP | 0.0534 |
| RRIRRRPPRLPRPRPRPLNDPRP | 0.0468 |
| RRIRVRPPRLPRPRPRPTMSPRP | -0.194 |
| RRIRWRPPRLPRPRPRPFEIPRP | 0.0217 |
| RRIRMRPPRLPRPRPRPGNMPRP | -0.331 |
| RRIRPRPPRLPRPRPRPQSLPRP | -0.288 |
| RRIRIRPPRLPRPRPRPGCLPRP | 1.56 |
| RRIRWRPPRLPRPRPRPEAVPRP | 1.05 |
| RRIRYRPPRLPRPRPRPVVHPRP | -0.00114 |
| RRIRQRPPRLPRPRPRPDWVPRP | 0.116 |
| RRIRMRPPRLPRPRPRPDTKPRP | 0.0742 |
| RRIRKRPPRLPRPRPRPRCTPRP | 0.555 |
| RRIRNRPPRLPRPRPRPFDHPRP | -0.0345 |
| RRIRKRPPRLPRPRPRPTGCPRP | 0.0439 |
| RRIRMRPPRLPRPRPRPPHEPRP | 0.445 |

| Sequence | shrunken log2 fold change |
| --- | --- |
| RRIRVRPPRLPRPRPRPFVSPRP | -0.679 |
| RRIRLRPPRLPRPRPRPMFNPRP | -0.524 |
| RRIRYRPPRLPRPRPRPMHLPRP | -0.00136 |
| RRIRARPPRLPRPRPRPAGHPRP | 0.398 |
| RRIRGRPPRLPRPRPRPPVAPRP | 1.22 |
| RRIRNRPPRLPRPRPRPTFEPRP | -0.0715 |
| RRIRMRPPRLPRPRPRPTRQPRP | 0.886 |
| RRIRIRPPRLPRPRPRPYQAPRP | -0.342 |
| RRIRKRPPRLPRPRPRPASKPRP | -0.25 |
| RRIRRRPPRLPRPRPRPWCLPRP | -0.214 |
| RRIRGRPPRLPRPRPRPCHHPRP | -0.00543 |
| RRIRYRPPRLPRPRPRPWPVPRP | 0.0536 |
| RRIRFRPPRLPRPRPRPEVPPRP | -0.0248 |
| RRIRWRPPRLPRPRPRPCIDPRP | -0.0447 |
| RRIRERPPRLPRPRPRPFFMPRP | -0.0808 |
| RRIRNRPPRLPRPRPRPHTLPRP | -0.39 |
| RRIRTRPPRLPRPRPRPIPLPRP | -0.683 |
| RRIRNRPPRLPRPRPRPEDYPRP | -0.133 |
| RRIRIRPPRLPRPRPRPMACPRP | -0.321 |
| RRIRNRPPRLPRPRPRPMYSPRP | -0.479 |
| RRIRMRPPRLPRPRPRPDQSPRP | 0.0283 |
| RRIRLRPPRLPRPRPRPWITPRP | -0.028 |
| RRIRNRPPRLPRPRPRPLKLPRP | -0.207 |
| RRIRSRPPRLPRPRPRPSPGPRP | 0.312 |
| RRIRERPPRLPRPRPRPGKMPRP | 0.0204 |
